The target of series [1] is T1, Cx43 hemichannels (HCs) in primary mouse chondrocytes (Mus musculus, UniProt P23242).
T1 construct: In primary mouse chondrocytes, ethidium bromide dye uptake assay; endogenous in cells; host or cells: primary mouse chondrocytes
The series can be described thus: Ethidium bromide dye uptake assay in primary mouse chondrocytes. The series is classed as cell-based.

In series [2] the test system is post-traumatic OA model (DMM) in male C57BL/6 mice. The series is classed as in vivo, mouse. On the procedure: Materials and Methods. Animals and surgery model. The mice used were of C57BL/6 background. The mice were housed in a temperature-controlled room with a light/dark cycle of 12 hours under specific pathogen-free conditions. Food and water were provided ad libitum. Destabilization of the medial meniscus (DMM) surgery was performed on the right knee joint of mice (Glasson S S, et al. Osteoarthritis and cartilage. 2007; 15(9):1061-9). Briefly, a 3 mm longitudinal incision over the distal patella to proximal tibial plateau was made. The joint capsule immediately medial to the patellar tendon was incised with a #15 blade and the joint capsule opened with micro-iris scissors. Blunt dissection of the fat pad over the intercondylar area was then performed to expose the intercondylar region, providing visualization of the meniscotibial ligament of the medial meniscus. Mild hemorrhage from the fat pad upon blunt dissection was controlled by pressure from absorption spears. Sectioning of medial meniscotibial ligament with micro-surgical knife, with the blade directed proximo-laterally, gave destabilization of the medial meniscus (DMM). Sham surgery was performed with the ligament visualized but not transected. Histology. At 8 weeks after the induction of osteoarthritis (OA), the femur and tibia bones isolated from DMM and sham operated mice were fixed in 4% paraformaldehyde for 2 days prior to decalcification with 10% EDTA (pH 7.5) for 3 weeks. The samples were embedded in paraffin, and 5-μm-thick sections were collected on glass slides. Sections were deparaffinized in xylene, followed by a graded series of alcohol washes. To determine the extent of cartilage deterioration, sections were stained with Safranin O/Fast Green. OARSI scoring was performed to evaluate knee joint articular cartilage destruction (Glasson S S, et al. Osteoarthritis and cartilage. 2010; 18 Suppl 3:S17-23). Specifically, both medial femoral condyle and medial tibial plateau were analyzed through three-level sections of the joints and the severity of OA is expressed as the averaged and summed scores for the entire joint. Results. Inhibition of Cx43 hemichannel ameliorates histopathological changes of OA. To investigate the function of Cx43 hemichannel in OA progression, post-traumatic OA model was induced in male C57BL/6 mice by surgically destabilization of the medial meniscus (DMM). The anti-Cx43 hemichannel blocking antibody (M1 antibody) or saline was administered by intraperitoneal injection twice at 30 minutes and four weeks post-surgery (FIG. 1A). Histological staining of Safranin O/Fast Green was utilized to visualize the severity of articular cartilage damage, which was determined using the Osteoarthritis Research Society International (OARSI) scoring system (Glasson S S, et al. Osteoarthritis and cartilage. 2010; 18 Suppl 3:S17-23) by two blinded observers (FIGS. 1B-D). […] Moreover, synovium hyperplasia was quantified by the synovitis score ([…], et al. Pathology, research and practice. 2002; 198(5):317-25; and Huesa C, et al. Annals of the rheumatic diseases. 2016; 75(11):1989-97).

Series [3] has as its system knee joint region (synovium). The series can be described thus: In vivo antibody binding pattern in the knee joint (immunofluorescence). The arrangement: species or system mouse. The source says: Immunofluorescent staining. The isolated femur and tibia bones were fixed in 4% paraformaldehyde for 2 days prior to decalcification with 10% EDTA (pH 7.5) for 3 weeks, and then dehydrated in 30% sucrose/PBS for 3 days. Samples were embedded in the Tissue-Tek CRYO OCT compound (Thermo Fisher Scientific, Pittsburgh, PA, USA), and 12-μm-thick sections were collected on glass slides. Sections were blocked and permeabilized with 2% goat serum, 2% fish skin gelatin, 0.025% Triton X-100 and 1% bovine serum albumin in PBS. The sections were incubated overnight at 4° C. with affinity-purified antibodies against Cx43 (CT) (1:100) (Cherian P P, et al. The Journal of biological chemistry. 2003; 278(44):43146-56), for 1 hour with the appropriate secondary antibody. Slides were mounted using Vectashield mounting medium (H-1000, Vector Lab). Confocal fluorescence imaging was performed using a confocal laser scanning microscope (LSM770, Carl Zeiss, Oberkochen, Germany).
M1 antibody binds to synovium and inhibits hemichannel opening in OA. Due to the dense nature of cartilage and large size of antibodies, a widely held perception is that antibodies are unable to penetrate the cartilage matrix. To determine the antibody binding pattern in the knee joint region, M1 antibody (25 mg/kg) with human IgG epitope or saline was intraperitoneally (i.p.) injected at 30 mins after DMM surgery. As shown in the diagram (FIG. 8A), mice were euthanized and perfused before isolation of hindlimbs at one or two weeks after injection. Frozen tissue sections were prepared and immuno-labeled with Alexa Fluor 594-conjugated anti-human IgG secondary antibody. […] The synovium of joints comprises macrophage-like type A cells, which are responsible for phagocytosing synovial fluid, and fibroblast-like type B cells, which produce hyaluronic acid and mucin to nourish and mechanically protect, respectively, the underlying articular cartilage (Donahue H J, et al. Nature reviews Rheumatology. 2017; 14(1):42-51). […]

The test system of series [4] is post-traumatic OA model (DMM) in male C57BL/6 mice. Briefly: DMM OA model: open field test. The series is classed as in vivo, mouse. On the procedure:
Destabilization of the medial meniscus (DMM) surgery was performed on the right knee joint of mice (Glasson S S, et al. Osteoarthritis and cartilage. 2007; 15(9):1061-9). Briefly, a 3 mm longitudinal incision over the distal patella to proximal tibial plateau was made. The joint capsule immediately medial to the patellar tendon was incised with a #15 blade and the joint capsule opened with micro-iris scissors. Blunt dissection of the fat pad over the intercondylar area was then performed to expose the intercondylar region, providing visualization of the meniscotibial ligament of the medial meniscus. Mild hemorrhage from the fat pad upon blunt dissection was controlled by pressure from absorption spears. Sectioning of medial meniscotibial ligament with micro-surgical knife, with the blade directed proximo-laterally, gave destabilization of the medial meniscus (DMM). Sham surgery was performed with the ligament visualized but not transected.
Spontaneous locomotor activity was analyzed using the open-field test. Mice were placed into the center of a chamber 25×25×25 cm to allow free exploration. The experiments were performed for 10 minutes. Total travel distance, and immobility time were measured by computerized analysis. Mice behavior was recorded, and videos were analyzed by use of ANY-maze behavior tracking software (Stoelting Co., Wood Dale, IL, USA).

Setting [5] is: 4 weeks after DMM, vs saline group.
Where [6] appears, read: single i.p. injection, eight weeks after DMM, vs saline.

The results in this text go back to US20240076371A1, “COMPOSITIONS AND METHODS FOR TREATING OSTEOARTHRITIS, RHEUMATOID ARTHRITIS, AND JOINT AND TENDON DISORDERS” (BOARD OF REGENTS, THE UNIVERSITY OF TEXAS SYSTEM, priority 2021, published 2024).

Like-named read-outs stand apart in the source and are kept apart here.

T1 sequence (P23242 whole entry): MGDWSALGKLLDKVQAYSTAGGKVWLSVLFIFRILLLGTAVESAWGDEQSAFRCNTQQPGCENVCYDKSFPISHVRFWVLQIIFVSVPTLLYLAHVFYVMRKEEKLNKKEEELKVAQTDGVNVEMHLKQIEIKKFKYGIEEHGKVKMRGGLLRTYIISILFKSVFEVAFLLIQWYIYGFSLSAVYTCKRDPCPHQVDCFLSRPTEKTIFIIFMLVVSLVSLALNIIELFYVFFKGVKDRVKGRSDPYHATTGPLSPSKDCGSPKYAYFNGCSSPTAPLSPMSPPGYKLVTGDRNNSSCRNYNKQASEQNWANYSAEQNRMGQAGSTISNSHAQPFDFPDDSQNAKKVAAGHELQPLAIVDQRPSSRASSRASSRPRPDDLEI

B1: M1 antibody: antibody with variable heavy chain SEQ ID NO: 58 and variable light chain SEQ ID NO: 60; inhibits or blocks opening of Cx43 hemichannel (antibody, V domains shown)
VH: EVQLQQPGAELVKPGASVKLSCKASGYTFTSYYMYWVKQRPGQGLEWIGGINPSNGGTNFNEKFKNKATLTVDKSSSTAYMQLSSLTSEDSAVYYCTREGNPYYTMNYWGQGTSVTVSS
VL: DIVMTQSPSSLSVSAGEKVTMSCKSSQSLLNSGNQKTYLAWYQQKPGQPPKLLIYGASTRESGVPDRFTGSGSGTDFTLTISSVQAEDLAVYYCQNDHSYPFTFGSGTKLEIK
B1: the “IL-1β treatment induced HCs opening (ethidium bromide dye uptake)” value in series [1] was “blocked”. In addition, the “OARSI scores in medial tibial plateau and medial femoral condyle” value in series [2] (DMM mice, i.p. twice at 30 minutes and four weeks post-surgery, 8 weeks after DMM, vs saline) is reported as “significant reduction”. In series [2] (DMM mice, i.p. twice, 8 weeks after DMM, three-level sections), the “Summed OARSI score of MTP and MFC (structural integrity of the articular cartilage)” value is on record as “significantly improved structural integrity”. Besides, the “pathologic changes in the articular cartilage of sham-operated mice” value in series [2] (mouse, in vivo, ip) is on record as “did not exhibit pathologic changes”. Further, the “OARSI scores in medial tibial plateau and medial femoral condyle” value in series [2] (single i.p. injection at 30 minutes post-surgery, eight weeks after DMM) is recorded as “significant reduction”. In addition, in series [2] (single i.p. injection at 30 minutes post-surgery, eight weeks after DMM, vs saline), the “proteoglycan loss and cartilage erosion (Safranin O/Fast Green)” value is “less proteoglycan loss and cartilage erosion”. Moreover, the “antibody binding site in the knee joint region” value in series [3] (25 mg/kg i.p. at 30 mins after DMM surgery, anti-human IgG secondary antibody) is on record as “primarily localized in the synovium region”. Also, in series [3] (25 mg/kg i.p. at 30 mins after DMM surgery, one or two weeks after injection), the “antibody signal after administration” value is “detectable at both one and two weeks”. In addition, the “time after administration at which antibody signals were detected” value in series [3] (synovium region) was “more than 2 weeks”. In addition, in series [4] (setting [5]), the “distance moved (open field)” value was “trend of increased distance moved” and the “immobility time (open field)” value was “decreased immobility time”. The “pain responses: reductions in distance traveled and elevations in immobility time (open field)” value in series [4] (8 weeks after DMM, i.p. twice) is on record as “suppressed these pain responses”. Moreover, the “distance traveled and immobility time in sham mice, saline vs antibody” value in series [4] (sham mice at 8 weeks) is “No difference”. Also, in series [4] (setting [6]), the “distance traveled (open field)” value is given as “significant increase” and the “immobility time (open field)” value was “reduction”.
